Source: publication PMC4564341

What was measured:
[1] = target: CREB pKID αB peptide pKID αB helix (UniProt P16220); conditions: cited from earlier work
[2] = target: Mouse CBP KIX (residues 586-683) (mouse) (UniProt P45481); assay: ITC
[3] = target: Mouse CBP KIX (residues 586-683) (mouse) (UniProt P45481); assay: NMR titration

Substance	Kd [1]	Kd2 (site 2, two-site model) [2]	Kd [3]
CBP KIX (from UniProt P45481)	80 µM		
CRTC1-MAML2 TAD1 polypeptide spanning residues 150-190		370 µM	21 µM
